Source: patent US8586538B2, “Method of treating a patient suffering from a bleeding disorder comprising administering an antibody against the A3-C1 of FVIII” (Stichting Sanquin Bloedvoorziening, priority 2002, dated 2013)

Target: T1, wild-type recombinant FVIII light chain (Homo sapiens, UniProt P00451)
T1 construct: FVIII/FV^1811-1818 light chain chimera and wild-type FVIII light chain were purified employing Q-Sepharose chromatography; made in house; host or cells: murine fibroblasts (C127) cells
T1 sequence (P00451 1668-2351 limits assumed): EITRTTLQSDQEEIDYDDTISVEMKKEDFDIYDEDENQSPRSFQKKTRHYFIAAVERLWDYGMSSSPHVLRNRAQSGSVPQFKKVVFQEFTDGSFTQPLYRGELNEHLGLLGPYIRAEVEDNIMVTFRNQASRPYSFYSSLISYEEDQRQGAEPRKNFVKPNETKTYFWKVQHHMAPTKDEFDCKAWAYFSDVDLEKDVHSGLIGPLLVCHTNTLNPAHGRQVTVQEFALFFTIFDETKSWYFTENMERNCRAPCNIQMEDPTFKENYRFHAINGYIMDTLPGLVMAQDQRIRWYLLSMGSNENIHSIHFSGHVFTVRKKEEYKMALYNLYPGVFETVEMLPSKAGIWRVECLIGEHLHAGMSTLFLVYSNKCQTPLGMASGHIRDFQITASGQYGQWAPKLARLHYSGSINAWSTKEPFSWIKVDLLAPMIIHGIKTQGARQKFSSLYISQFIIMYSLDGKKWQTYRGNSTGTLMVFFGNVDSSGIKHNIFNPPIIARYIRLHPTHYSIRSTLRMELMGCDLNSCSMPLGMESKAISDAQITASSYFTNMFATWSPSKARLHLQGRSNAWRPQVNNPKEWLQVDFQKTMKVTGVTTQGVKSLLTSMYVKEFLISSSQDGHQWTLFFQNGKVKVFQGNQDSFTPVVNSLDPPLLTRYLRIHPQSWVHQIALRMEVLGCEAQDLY
Test: SPR binding of scFv KM41 to wild-type recombinant FVIII light chain
Conditions: scFv 40 nM
Procedure: FIG. 7. Binding of scFv KM41 to the FVIII/FV^1811-1818 light chain chimera. ScFv EL14 at a CM5 sensor chip (67 fmol/mm^2) was incubated with either the recombinant wild-type FVIII light chain or the recombinant FVIII/FV^1811-1818 chimera till a density of 20 fmol/mm^2, in 150 mM NaCl, 50 mM Tris (pH 7.4). ScFv KM41 (40 nM) was passed over two separate channels with immobilized intact FVIII light chain (I) or FVIII/FV^1811-1818 chimera (II), respectively. Response is indicated as Resonance Units (RU) and is corrected for nonspecific binding.
The kinetics of protein interactions was determined by surface plasmon resonance (SPR) analysis, employing a BIAcore™2000 biosensor system (Biacore AS, Uppsala, Sweden). […] Association of analyte was assessed in 150 mM NaCl, 2 mM CaCl2, 0.005% (v/v) Tween® 20, and 20 mM Hepes (pH 7.4) for 2 min, at a flow rate of 20 μl/min at 25° C. […] The association (kon) and dissociation (koff) rate constants were determined by using the BIAevaluation software 3.1 (Biacore AB, Uppsala, Sweden). […] Equilibrium dissociation constants (kd) were calculated from the ratio koff/kon. […]

B1: scFv KM41: scFv antibody fragment directed against FVIII region Arg^1803-Lys^1818 (protein)
scFv: QVQLLQSAADVKKPGASVKVSCTASGYIFTSYDIDWVRQATGQGLEWMGWMNPNSGNAGFAQKFKGRLTLTRDTSTSTAYMELRRLESEDTAVYYCARSTPHSYSGSGLPPTSDSWGQGTLVTVSSGGGGSGGGGSGGGGSEIVLTQSPGTLSLSPGERATLSCRASQSVSSSFLGWYQQKPGQAPRLLIYGASSRATGIPDRFSGSGSGTDFTLTISRLEPEDFAVYYCQQYGISPLTFGGGTKLEIKRAAAEQKLISEEDLNGAAHHHHHH
- Binding of scFv to immobilized wild-type recombinant FVIII light chain: readily reacted
